According to US6602850B1, “Method of treating asthma using soluble IL-9 receptor variants” (Genaera Corporation, priority 1996, dated 2003):

B1: ΔQ173 variant: splice variant of the IL-9R wherein the glutamine residue at position 173 of the precursor protein has been deleted (SEQ ID NO 3) (protein)
chain: SVTGEGQGPRSRTFTCLTNNILRIDCHWSAPELGQGSSPWLLFTSNQAPGGTHKCILRGSECTVVLPPEAVLVPSDNFTITFHHCMSGREQVSLVDPEYLPRRHVKLDPPSDLQSNISSGHCILTWSISPALEPMTTLLSYELAFKKQEEAWEAQHRDHIVGVTWLILEAFELDPGFIHEARLRVQMATLEDDVVEEERYTGQWSEWSQPVCFQAPQRQGPLIPPWGWPGNTLVAVSIFLLLTGPTYLLFKLSPRVKRIFYQNVPSPAMFFQPLYSVHNGNFQTWMGAHRAGVLLSQDCAGTPQGALEPCVQEATALLTCGPARPWKSVALEEEQEGPGTRLPGNLSSEDVLPAGCTEWRVQTLAYLPQEDWAPTSLTRPAPPDSEGSRSSSSSSSSSNNNNYCALGCYGGWHLSALPGNTQSSGPIPALACGLSCDHQGLETQQGVAWVLAGHCQRPGLHEDLQGMLLPSVLSKARSWTF
B2: IL-9R: wild type human IL-9 receptor, Arg allele at codon 344 with 8 Ser/4 Asn repeats (SEQ ID NO 1) (protein)
chain: SVTGEGQGPRSRTFTCLTNNILRIDCHWSAPELGQGSSPWLLFTSNQAPGGTHKCILRGSECTVVLPPEAVLVPSDNFTITFHHCMSGREQVSLVDPEYLPRRHVKLDPPSDLQSNISSGHCILTWSISPALEPMTTLLSYELAFKKQEEAWEQAQHRDHIVGVTWLILEAFELDPGFIHEARLRVQMATLEDDVVEEERYTGQWSEWSQPVCFQAPQRQGPLIPPWGWPGNTLVAVSIFLLLTGPTYLLFKLSPRVKRIFYQNVPSPAMFFQPLYSVHNGNFQTWMGAHRAGVLLSQDCAGTPQGALEPCVQEATALLTCGPARPWKSVALEEEQEGPGTRLPGNLSSEDVLPAGCTEWRVQTLAYLPQEDWAPTSLTRPAPPDSEGSRSSSSSSSSSNNNNYCALGCYGGWHLSALPGNTQSSGPIPALACGLSCDHQGLETQQGVAWVLAGHCQRPGLHEDLQGMLLPSVLSKARSWTF

How the values were obtained:
[1] = system: Jak-Stat pathway; assay: Tyrosine phosphorylation of Jak, Stat and Irs family members in TS1 cells expressing human IL-9 receptor variants, after IL-9 stimulation; format: cell-based; conditions: TS1 cells expressing the receptor form, starved 6 hours, treated 5 minutes with human or murine IL-9 (100 ng/ml), FIG. 15
Experimental: (§1) To determine growth response of TS1 cells expressing various forms of human IL-9 receptor, cells were washed with PBS and resuspended in D-MEM, 10% fetal bovine serum. 10^3 cells per well were seeded in triplicate in 96-well microplates and, where appropriate, recombinant human IL-9 or murine IL-9 (R&D Systems, Minneapolis, Minn.) was added at a final concentration of 5 ng/ml. Cell proliferation was evaluated after 7 days using an acid phosphatase assay. Briefly, 50 μl of a buffer containing 0.1 M sodium acetate (pH 5.5), 0.1% Triton X-100 and 10 mM p-nitrophenyl phosphate (Sigma 104 phosphatase substrate) was added per well. The plate was incubated for 1-½ hours at room temperature, the reaction stopped with 10 μl/well of 1N sodium hydroxide and the absorbance was read on a Dynatech Model MR600 at 410 nm. To analyze tyrosine-phosphorylation of proteins of the signal transduction cascade upon cytokine stimulation, TS1 cells expressing various forms of human IL-9 receptor were washed with PBS, resuspended in D-MEM, 0.5% bovine serum albumin, and incubated for 6 hours at 37° C. Successively, 20×10^6 cells were treated for 5 minutes with either human IL-9 or murine IL-9 (100 ng/ml) and immediately washed in cold PBS. Cells were lysed in RIPA buffer as described in Example 11.
Typically, 20-50×10^6cells were lysed in 1 ml of RIPA buffer (PBS containing 1% NP40, 0.5% sodium deoxycholate, 0.1% SDS, 1 mM PMSF, 50 mM sodium fluoride, […] sodium orthovanadate, and 1× “Complete” protease inhibitors mixture, Cat. No. 1697498 Boehringer Mannheim) and incubated for 45 minutes on ice. Lysates were centrifuged for 20 minutes in an Eppendorf microcentrifuge and the supernatant recovered and transferred to a fresh tube. For immunoprecipitations, 1-5 μg of the antibody were added to the lysate and incubated overnight at 4° C. […] Proteins were transferred onto Immobilion-P membrane (Millipore) and detected using a horseradish peroxidase-conjugated secondary antibody followed by a chemiluminescence detection assay (Pierce). […]

[2] = system: TS1 cells; assay: Proliferation of TS1 cells expressing different forms of human IL-9 receptor (acid phosphatase assay); format: cell-based, murine; conditions: TS1 cells expressing the receptor form, IL-9 5 ng/ml, 7 days, FIG. 16
Experimental: as §1

[3] = listed as splice variant of the IL-9R

Molecule	activation (tyrosine phosphorylation) of proteins of the Jak-Stat pathway [1]	activation (tyrosine phosphorylation) of proteins of the Jak-Stat pathway [1, 3]	cellular proliferation upon IL-9 stimulation [2]	cellular proliferation upon IL-9 stimulation [2, 3]
B1	could not activate any proteins in the Jak-Stat pathway	not able to transcribe a signal through the Jak-Stat pathway	could not support cellular proliferation upon IL-9 stimulation	unable to induce cellular proliferation upon stimulation with IL-9
B2	all of the proteins of the pathway including Jak3 and Irs1 were phophoralated	–	–	–
